Experimental data taken from paper PMC10783636, “Chlorophyll biosynthesis under the control of arginine metabolism” (Cell Reports, 2023).

Assays:
[1] = biological target: ArgD-6xHis, recombinant Synechocystis ArgD (Synechocystis sp. PCC 6803) (UniProt P73133); assay: isothermal spectral shift assay; 5 nM labeled ArgD or 20 nM labeled Gun4 (Red NHS dye) titrated with a serial dilution of the unlabelled partner; 25 mM Tris, 0.1% Pluronic F-127, pH 8, 25°C; Monolith X; triplicate
[2] = biological target: 3×FLAG-tagged ArgD (N-acetylornithine aminotransferase) of Synechocystis sp. PCC 6803 (Synechocystis sp. PCC 6803) (UniProt P73133); assay: co-IP; f.ArgD from Synechocystis cells grown with 18 mM nitrate without or with Orn (1 mM for 24 h; 100 μM for 1 h); proteins released from the anti-FLAG resin with 1% SDS instead of FLAG peptide; western blot; WT control
[3] = biological target: 3×FLAG-tagged ArgD (N-acetylornithine aminotransferase) of Synechocystis sp. PCC 6803 (Synechocystis sp. PCC 6803) (UniProt P73133); assay: co-IP; f.ArgD or f.AstC purified from the soluble fraction of Synechocystis strains (ΔargD or ΔcphB background; cells with nitrate, without or with 1 mM Orn for 24 h) on anti-FLAG M2 gel, eluted with 3xFLAG peptide; SDS-PAGE, stained, blotted and probed with anti-Gun4 and anti-CphB
[4] = biological target: T1, ArgD-6xHis, recombinant Synechocystis ArgD (Synechocystis sp. PCC 6803, UniProt P73133 1-429, 2nd Generation Red NHS dye); assay: isothermal spectral shift assay; 5 nM labeled ArgD or 20 nM labeled Gun4 (Red NHS dye) titrated with a serial dilution of the unlabelled partner; 25 mM Tris, 0.1% Pluronic F-127, pH 8, 25°C; Monolith X; triplicate; conditions: both partners purified
T1 construct: N-acetylornithine aminotransferase ArgD, Synechocystis sp; PCC 6803, gene slr1022; the recombinant protein produced in E. coli is called full-length where the antibodies are described; Construct pET21a-argD; also called labeled ArgD; source: E. coli BL21 (DE3), pET21a, purified (Ni-NTA); not shown: His6, C-terminal, kept
T1 sequence (looked up): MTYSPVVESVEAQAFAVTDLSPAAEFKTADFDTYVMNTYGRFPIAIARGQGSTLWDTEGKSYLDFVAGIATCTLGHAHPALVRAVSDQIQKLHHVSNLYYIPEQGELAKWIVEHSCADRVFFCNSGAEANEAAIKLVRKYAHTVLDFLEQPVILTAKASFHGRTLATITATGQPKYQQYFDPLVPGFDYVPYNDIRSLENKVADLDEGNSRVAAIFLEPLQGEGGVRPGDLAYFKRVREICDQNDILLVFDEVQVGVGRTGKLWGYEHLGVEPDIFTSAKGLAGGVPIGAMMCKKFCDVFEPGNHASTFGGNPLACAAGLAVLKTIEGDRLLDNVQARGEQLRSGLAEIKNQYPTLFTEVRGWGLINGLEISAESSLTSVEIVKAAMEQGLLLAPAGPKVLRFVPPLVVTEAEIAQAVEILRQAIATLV

[5] = biological target: Gun4-6xHis, recombinant Synechocystis Gun4 (Synechocystis sp. PCC 6803); assay: as above
[6] = biological target: the molecule itself; assay: native gel or EMSA; 2D blue native/SDS-PAGE of the f.ArgD anti-FLAG eluate; apparent mass on the BN gel

Gun4-6xHis, recombinant Synechocystis Gun4 (natural protein)
Kd [1]: 0.0558 µM

Gun4 protein of Synechocystis sp. PCC 6803 (native) (natural protein)
fold enrichment of Gun4 in the f.ArgD pull-down (Orn-treated cells against control) [2]: > 12 ×
fold increase of f.ArgD-co-purified Gun4 (1 h feeding with 100 μM Orn against control) [2]: 6 times
fold more Gun4 co-purified with f.ArgD (cells with 1 mM Orn for 24 h against cells without Orn) [3]: 6 times

B1: CphB-6xHis, recombinant Synechocystis CphB (enzyme, Synechocystis sp. PCC 6803, UniProt P73832 1-271, looked up)
chain: MPLSSQPAILIIGGAEDKVHGREILQTFWSRSGGNDAIIGIIPSASREPLLIGERYQTIFSDMGVKELKVLDIRDRAQGDDSGYRLFVEQCTGIFMTGGDQLRLCGLLADTPLMDRIRQRVHNGEISLAGTSAGAAVMGHHMIAGGSSGEWPNRALVDMAVGLGIVPEIVVDQHFHNRNRMARLLSAISTHPELLGLGIDEDTCAMFERDGSVKVIGQGTVSFVDARDMSYTNAALVGANAPLSLHNLRLNILVHGEVYHQVKQRAFPRVT
notes: cyanophycinase CphB, Synechocystis sp; PCC 6803, gene slr2001; the recombinant protein produced in E. coli is called full-length where the antibodies are described; Construct pET21a-cphB; source: E. coli BL21 (DE3), pET21a, purified (Ni-NTA); not shown: His6, C-terminal, kept
Kd [4]: 29.8 ± 0.96 µM
Kd [5]: 2.16 µM

B2: 3×FLAG-tagged ArgD (N-acetylornithine aminotransferase) of Synechocystis sp. PCC 6803 (enzyme, UniProt P73133 1-429, looked up)
chain: T1 sequence (looked up)
notes: N-acetylornithine aminotransferase ArgD, Synechocystis sp; PCC 6803, gene slr1022; synthetic argD gene with optimised codon usage cloned into pPD-NFLAG; f.ArgD printed as 49.8 kDa; also called f.ArgD; source: Synechocystis f.argD+/ΔargD or f.argD+/ΔcphB strain (psbAII promoter), soluble fraction; not shown: 3xFLAG, N-terminal, kept
stoichiometry N [6]: 2

B3: cyanophycinase CphB of Synechocystis sp. PCC 6803 (native) (enzyme, UniProt P73832 1-271, looked up)
chain: B1 chain
notes: cyanophycinase CphB, Synechocystis sp; PCC 6803, gene slr2001; printed as 29.4 kDa; Migrated like a large oligomer (>200 kDa) on the BN gel; source: endogenous, Synechocystis soluble fraction
binding result [6]: binds
